From paper PMC11903955

Biological target: T1, CDK8 (Arabidopsis thaliana, UniProt Q84TI6 1-470)
T1 sequence: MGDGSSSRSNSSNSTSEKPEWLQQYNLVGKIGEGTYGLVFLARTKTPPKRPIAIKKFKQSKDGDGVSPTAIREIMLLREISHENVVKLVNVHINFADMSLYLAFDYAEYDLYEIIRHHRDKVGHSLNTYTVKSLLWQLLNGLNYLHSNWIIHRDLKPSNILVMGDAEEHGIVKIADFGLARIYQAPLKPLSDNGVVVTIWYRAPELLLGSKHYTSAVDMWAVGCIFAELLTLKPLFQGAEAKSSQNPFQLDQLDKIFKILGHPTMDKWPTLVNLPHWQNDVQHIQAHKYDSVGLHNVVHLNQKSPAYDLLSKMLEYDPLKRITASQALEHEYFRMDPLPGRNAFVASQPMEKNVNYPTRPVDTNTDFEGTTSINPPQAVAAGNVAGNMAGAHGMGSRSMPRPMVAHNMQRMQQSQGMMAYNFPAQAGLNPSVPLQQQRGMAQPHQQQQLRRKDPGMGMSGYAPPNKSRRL
Test: EMSA

B1: AT-rich probe (dsDNA)
DNA 1: TAACACATATTTTGATAAATTTATTACTAAAACTATTTT
DNA 2: AAAATAGTTTTAGTAATAAATTTATCAAAATATGTGTTA
B1: no binding.
